For experiment [1], the target named is T1, SV40 Large T Antigen (T-Ag) (SV40, UniProt P03070 1-708).
T1 construct: also called SV40 T-Ag; recombinant SV40 T-Ag
The experiment is described as follows: co-immunoprecipitation from metabolically labeled AT-2 cardiomyocytes.

In experiment [2] the target is T1, SV40 Large T Antigen (T-Ag). The experiment is described as follows: immune precipitation / Western blot, NIH-3T3 cells co-transfected with CMV-p193myc and CMV-T-Ag. For orientation: In western blotting, separated proteins are transferred to a membrane and probed.

B1: p193 (mouse p193, full length) (other)
chain: MVGELRYREFRVPLGPGLHAYPDELIRQRVGHNGHPEYQIRWLILRRGDDGDRDSTVDCKAEHILLWMSDDEIYANCHKMLGENGQVIAPSRESTEAGALDKSVLGEMETDVKSLIQRALRQLEECVGTVPPAPLLHTVHVLSAYASIEPLTGIFKDRRVVNLLMHMLSSPDYQIRWSAGRMIQALSSHDAGTRTQILLSLSQQEAIEKHLDFDSRCALLALFAQATLTEHPMSFEGVQLPQVPGRLLFSLVKRYLHVTFLLDRLNGDAGDQGAQNNFSPEELNVGRGRLELEFSMAMGTLISELVQAMRWDGASSRPESSSSSTFQPRPAQFRPYTQRFRRSRRFRPRASFASFNTYALYVRDTLRPGMRVRMLENYEEIAAGDEGQFRQSNDGVPPAQVLWDSTGHTYWVHWHMLEILGFEEDIEDVIDIEELQELGANGALSIVPPSQRWKPITQLFAEPYVVPEEEDREESENLTQAEWWELLFFIRQLSEAERLHIVDLLQDHLEEERVLDYDMLPELTVPVDLAQDLLLSLPQQLEDSALRDLFSCSVYRKYGPEVLVGHLSYPFVPGAQPNLFGANEESEAKDPPLQSASPALQRLVESLGPEGEVLVELEQALGSEAPQETEVKSCLLQLQEQPQPFLALMRSLDTSASNKTLHLTVLRILMQLVNFPEALLLPWHEAMDACVTCLRSPNTDREVLQELIFFLHRLTTTSRDYAVILNQHGARDAISKVLEKHRGKLELAQELRDMVSKCEKHAHLYRKLTTNILGGCIQMVLGQIEDHRRTHRPIQIPFFDVFLRYLCQGSSEEMKKNRYWEKVEVSSNPQRASRLTDRNPKTYWESSGRAGSHFITLHMRPGVIIRQLTLLVAGEDSSYMPAWVVVCGGNSIKSVNKELNTVNVMPSASRVTLLENLTRFWPIIQIRIKRCQQGGINTRIRGLEVLGPKPTFWPVFREQLCRHTRLFYMVRAQAWSQDIAEDRRSLLHLSSRLNGALRHEQNFAERFLPDMEAAQALSKTCWEALVSPLVQNITSPDEDSTSSLGWLLDQYLGCREAAYNPQSRAAAFSSRVRRLTHLLVHVEPREAAPPVVAIPRSKGRNRIHDWSYLITRGLPSSIMKNLTRCWRSVVEEQMNKFLSASWKDDDFVPRYCERYYVLQKSSSELFGPRAAFLLAMRNGCADAVRRLPFLRAAHVKQQFARHIDQRIQGSRMGGARGMEMLAQLQRCLESVLIFSPLEIATTFEHYYQHYMADRLLSVGSSWLEGAVLEQIGPCFPSRLPQQMLQSLNVSEELQRQFHVYQLQQLDQELLKLEDTEKKIQVAHEDSGREDKSKKEEAIGEAAAVAMAEEEDQGKKEEGEEEGEGEDEEEERYYKGTMPEVCVLVVTPRFWPVASVCQMLNPATCLPAYLRGTINHYTNFYSKSQSRSSLEKEPQRRLQWTWQGRAEVQFGGQILHVSTVQMWLLLHLNNQKEVSVESLQAISELPPDVLHRAIGPLTSSRGPLDLQEQKNVPGGVLKIRDDSEEPRPRRGNVWLIPPQTYLQAEAEEGRNMEKRRNLLNCLVVRILKAHGDEGLHVDRLVYLVLEAWEKGPCPARGLVSSLGRGATCRSSDVLSCILHLLVKGTLRRHDDRPQVLYYAVPVTVMEPHMESLNPGSAGPNPPLTFHTLQIRSRGVPYASCTDNHTFSTFR
modifications: 35S-methionine labelled in the immune precipitation experiments
notes: also called in vitro translated p193
Turning to B1, the binding result in experiment [1] is “binds”.

B2: p193myc (p193 protein harboring a C-terminal myc epitope tag, from CMV-p193myc) (other, not shown: small tags and cut ends)
chain: B1 chain
notes: Expressed in NIH-3T3 cells co-transfected with CMV-T-Ag; also called CMV-p193myc product
B2: the binding result in experiment [2] is recorded as “binds”.
